Experiments:
[1] = target: T1, human NPR1 on HEK293/hNPR1.myc.DDK cells with 10 nM hANP (NPR1-ANP complex) (human, UniProt P01160 124-151); test: ECL cell binding (MSD), +10 nM hANP
T1 construct: also called NPR1-ANP Complex on the Cell Surface
T1 sequence: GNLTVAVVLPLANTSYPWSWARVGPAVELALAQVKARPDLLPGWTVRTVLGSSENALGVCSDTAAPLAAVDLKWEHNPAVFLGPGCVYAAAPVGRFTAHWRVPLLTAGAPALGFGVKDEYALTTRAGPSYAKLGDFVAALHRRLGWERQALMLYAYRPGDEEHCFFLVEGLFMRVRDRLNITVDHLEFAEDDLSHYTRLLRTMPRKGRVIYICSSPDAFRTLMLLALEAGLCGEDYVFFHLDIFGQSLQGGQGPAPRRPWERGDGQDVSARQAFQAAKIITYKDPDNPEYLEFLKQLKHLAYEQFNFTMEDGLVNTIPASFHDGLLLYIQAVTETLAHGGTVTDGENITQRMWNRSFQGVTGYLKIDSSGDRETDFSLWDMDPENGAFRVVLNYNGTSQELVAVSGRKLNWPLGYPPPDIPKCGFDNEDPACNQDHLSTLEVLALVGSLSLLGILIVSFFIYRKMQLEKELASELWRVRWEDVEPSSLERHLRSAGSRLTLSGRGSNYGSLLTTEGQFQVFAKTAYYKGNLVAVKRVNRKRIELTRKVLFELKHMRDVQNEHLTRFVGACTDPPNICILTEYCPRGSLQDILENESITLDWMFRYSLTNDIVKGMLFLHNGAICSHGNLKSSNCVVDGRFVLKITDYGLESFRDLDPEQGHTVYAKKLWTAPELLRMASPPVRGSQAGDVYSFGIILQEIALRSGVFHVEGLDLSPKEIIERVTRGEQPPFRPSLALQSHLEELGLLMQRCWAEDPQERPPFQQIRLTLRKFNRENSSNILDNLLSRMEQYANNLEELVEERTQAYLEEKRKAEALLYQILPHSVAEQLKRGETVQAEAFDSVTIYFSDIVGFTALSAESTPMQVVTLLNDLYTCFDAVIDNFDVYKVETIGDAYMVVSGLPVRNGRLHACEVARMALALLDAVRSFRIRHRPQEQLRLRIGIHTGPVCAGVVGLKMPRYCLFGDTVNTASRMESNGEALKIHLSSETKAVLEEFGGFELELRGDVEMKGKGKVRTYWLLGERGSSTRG
T1 sequence (peptide): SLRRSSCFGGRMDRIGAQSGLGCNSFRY
Description: All cells were washed once with 1×PBS with Ca²⁺/Mg²⁺ and counted with a Cellometer™ Auto T4 cell counter (Nexcelom Bioscience). Approximately 2.0×10⁴ HEK293/hNPR1.myc.DDK or HEK293 cells were seeded separately onto 96-well carbon electrode plates (MULTI-ARRAY high bind plate, Meso Scale Discovery (MSD, Rockville, MD)) and incubated for 1 hour (h) at 37° C. Nonspecific binding sites were blocked by 2% BSA (w/v) in 1×PBS with Ca²⁺/Mg²⁺for 1 h at room temperature (RT). HEK293/hNPR1.myc. […] The plate-bound antibodies were detected with SULFO-TAG™-conjugated goat polyclonal anti-human IgG antibody specific for heavy and light chains (Jackson Immunoresearch, West Grove, PA) for 1 h, RT.
After washes, plates were developed with Read Buffer (MSD, Rockville, MD) according to manufacturer's recommended procedure and luminescent signals were recorded with a SECTOR Imager 600 (MSD, Rockville, MD). Luminescence intensity, measured in relative light units (RLU), was recorded to indicate the binding intensity of each antibody at the range of concentrations.
In addition, direct binding signals (RLU) were analyzed as a function of the antibody concentration and data were fitted with a sigmoidal (four-parameter logistic) dose-response model using R statistical package (open source).

[2] = target: T2, mNPR1-mFc (mouse); test: SPR Biacore, mAb captured by anti-human Fc, 25C
T2 construct: also called mouse NPR1 extracellular domain expressed with a C-terminal mouse IgG2a
T2 chain: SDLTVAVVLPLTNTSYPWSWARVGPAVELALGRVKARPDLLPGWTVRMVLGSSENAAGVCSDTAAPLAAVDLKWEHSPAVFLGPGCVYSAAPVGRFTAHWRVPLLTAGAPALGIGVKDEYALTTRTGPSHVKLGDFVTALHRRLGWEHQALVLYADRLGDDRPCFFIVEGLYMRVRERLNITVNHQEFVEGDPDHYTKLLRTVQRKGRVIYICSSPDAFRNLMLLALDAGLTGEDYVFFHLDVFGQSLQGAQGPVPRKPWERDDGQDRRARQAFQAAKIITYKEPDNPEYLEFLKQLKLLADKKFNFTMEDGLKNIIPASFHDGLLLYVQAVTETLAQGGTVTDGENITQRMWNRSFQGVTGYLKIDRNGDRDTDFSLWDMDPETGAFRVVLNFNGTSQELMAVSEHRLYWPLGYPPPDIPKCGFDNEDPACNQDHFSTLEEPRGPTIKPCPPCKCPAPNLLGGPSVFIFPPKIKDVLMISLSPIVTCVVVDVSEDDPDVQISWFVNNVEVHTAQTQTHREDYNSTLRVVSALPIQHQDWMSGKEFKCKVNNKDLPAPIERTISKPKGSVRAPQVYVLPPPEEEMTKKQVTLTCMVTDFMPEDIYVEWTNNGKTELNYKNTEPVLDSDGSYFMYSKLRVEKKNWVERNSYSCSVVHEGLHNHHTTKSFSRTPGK
Description: (§1) Equilibrium dissociation constant (KD) for different NPR1 reagents binding to purified anti-NPR1 monoclonal antibodies (mAbs) were determined using a real-time surface plasmon resonance based Biacore 4000 biosensor. All binding studies were performed in 10 mM HEPES, 150 mM NaCl, 3 mM EDTA, and 0.05% v/v Surfactant Tween-20, pH 7.4 (HBS-ET) running buffer at 25° C. and 37° C. The Biacore CM5 sensor chip surface was first derivatized by amine coupling with either mouse anti-human Fc specific mAb (GE Healthcare, #BR100839) or goat anti-human Fcy specific polyclonal antibody (Jackson ImmunoResearch Laboratories, #BR-1008-39) to capture anti-NPR1 mAbs.

[3] = target: T3, mfNPR1-mFc:hBNP complex (monkey; human, UniProt P16860 103-134); test: SPR Biacore, mAb captured by anti-human Fc, 37C
T3 construct: Receptor-Fc pre-complexed with 10-fold hBNP
Description: as §1

[4] = target: T2, mNPR1-mFc; test: SPR Biacore, mAb captured by anti-human Fc, 37C
Description: as §1

B1: mAb25502 (antibody, human IgG4, V domains shown)
VH: QLQLQESGPGLVKPSETLSLTCTVSGGSISSSSYYWGWIRQPPGKGLEWIGSIYYSGSPYYIPSLKSRVTISVDTSKNQFSLKLSSVTAADTAMYYCARQGRGIARAGPFDYWGQGTLVTVSS
VL: DIQMTQSPSSLSASVGDRVTITCRASQGISNYLAWYQEKPGKVPKLLIYAASTLQSGVPSRFSGSGSGTDFTLTITSLQSEDVATYYCQKYNSAPPWTFGQGTKVEIK
With B1 the “Ratio at 3.7 nM Ab concentration of Cell Binding Signal (RLU) to HEK293/hNPR1.myc.DKK relative to parental HEK293” value [1] was 14 ratio, the “100 nM Ag Bound (RU)” value [2] was 1 RU and the “100 nM Ag Bound (RU)” value [3] was 139 RU. For the same binder, the Kd [3] was 5.65 nM, the koff [3] was 0.000481 s⁻¹ and the kon [3] was 85200 M⁻¹ s⁻¹. For the same binder, the t½ [3] was 24 min, the “100 nM Ag Bound (RU)” value [4] was 1 RU and the binding result [4] was “no binding (tested: 100 nM)”.

Reference: patent US20240309103A1 (Regeneron, published 2024)
